The results in this text go back to the Human Domainome abundance scans (Beltran et al. 2025).

± gives the uncertainty stated by the source.

B1: Formin-binding protein 4, residues 200 to 261; numbered along this chain, Q8N3X1 (parent)
chain: SGWQYDTQCSLAGVGIEMGDWQEVWDENTGCYYYWNTQTNEVTWELPQYLATQVQGLQHYQP

This data set covers variants of B1. In words: abundance fitness (aPCA) (normalised: wild type 0, dead -1); higher = more abundant; growth selection in yeast, the domain comes from the species named. The note with it: Homo sapiens.
As for SGWQYDTQCSLAGVGIEMGDWQEEWDENTGCYYYWNTQTNEVTWELPQYLATQVQGLQHYQP [V24E], the abundance fitness is -0.217 ± 0.1.
Next, SGWQYDTQCSLAGVGIEMGDWQEAWDENTGCYYYWNTQTNEVTWELPQYLATQVQGLQHYQP [V24A]: -0.409 ± 0.11; SGWQYDTQCSLAGVGIEMGDWQEIWDENTGCYYYWNTQTNEVTWELPQYLATQVQGLQHYQP [V24I]: -0.399 ± 0.18.
As for SGWQYDTQCSLAGVGIEMGDWQEFWDENTGCYYYWNTQTNEVTWELPQYLATQVQGLQHYQP [V24F], the abundance fitness is -0.168 ± 0.14.
Next, SGWQYDTQCSLAGVGIEMGDWQEDWDENTGCYYYWNTQTNEVTWELPQYLATQVQGLQHYQP [V24D]: -0.215 ± 0.14; SGWQYDTQCSLAGVGIEMGDWQENWDENTGCYYYWNTQTNEVTWELPQYLATQVQGLQHYQP [V24N]: -0.257 ± 0.15; SGWQYDTQCSLAGVGIEMGDWQEMWDENTGCYYYWNTQTNEVTWELPQYLATQVQGLQHYQP [V24M]: -0.361 ± 0.14.
SGWQYDTQCSLAGVGIEMGDWQEWWDENTGCYYYWNTQTNEVTWELPQYLATQVQGLQHYQP [V24W]: the abundance fitness is -0.437 ± 0.096.
Turning to SGWQYDTQCSLAGVGIEMGDWQEQWDENTGCYYYWNTQTNEVTWELPQYLATQVQGLQHYQP [V24Q], the abundance fitness was found to be 0.097 ± 0.096.
On to SGWQYDTQCSLAGVGIEMGDWQEGWDENTGCYYYWNTQTNEVTWELPQYLATQVQGLQHYQP [V24G], for which the abundance fitness was -0.269 ± 0.075.
Turning to SGWQYDTQCSLAGVGIEMGDWQERWDENTGCYYYWNTQTNEVTWELPQYLATQVQGLQHYQP [V24R], the abundance fitness is -0.145 ± 0.059.
As for SGWQYDTQCSLAGVGIEMGDWQEYWDENTGCYYYWNTQTNEVTWELPQYLATQVQGLQHYQP [V24Y], the figure is -0.145 ± 0.13.
Next, SGWQYDTQCSLAGVGIEMGDWQEHWDENTGCYYYWNTQTNEVTWELPQYLATQVQGLQHYQP [V24H]: -0.163 ± 0.13.
Turning to SGWQYDTQCSLAGVGIEMGDWQETWDENTGCYYYWNTQTNEVTWELPQYLATQVQGLQHYQP [V24T], the abundance fitness is -0.036 ± 0.11.
As for SGWQYDTQCSLAGVGIEMGDWQEPWDENTGCYYYWNTQTNEVTWELPQYLATQVQGLQHYQP [V24P], the abundance fitness was -1.05 ± 0.32.
Consider SGWQYDTQCSLAGVGIEMGDWQELWDENTGCYYYWNTQTNEVTWELPQYLATQVQGLQHYQP [V24L], for which the abundance fitness was -0.074 ± 0.07.
With SGWQYDTQCSLAGVGIEMGTWQEVWDENTGCYYYWNTQTNEVTWELPQYLATQVQGLQHYQP [D20T], the abundance fitness is -0.339 ± 0.079.
As for SGWQYDTQCSLAGVGIEMGIWQEVWDENTGCYYYWNTQTNEVTWELPQYLATQVQGLQHYQP [D20I], the abundance fitness is -0.579 ± 0.16.
Regarding SGWQYDTQCSLAGVGIEMGSWQEVWDENTGCYYYWNTQTNEVTWELPQYLATQVQGLQHYQP [D20S], the abundance fitness was -0.295 ± 0.071.
On to SGWQYDTQCSLAGVGIEMGCWQEVWDENTGCYYYWNTQTNEVTWELPQYLATQVQGLQHYQP [D20C], for which the abundance fitness is -0.162 ± 0.13.
Take SGWQYDTQCSLAGVGIEMGPWQEVWDENTGCYYYWNTQTNEVTWELPQYLATQVQGLQHYQP [D20P]: the abundance fitness is -0.252 ± 0.082.
For the variant SGWQYDTQCSLAGVGIEMGLWQEVWDENTGCYYYWNTQTNEVTWELPQYLATQVQGLQHYQP [D20L], the abundance fitness was -0.383 ± 0.058.
Regarding SGWQYDTQCSLAGVGIEMGKWQEVWDENTGCYYYWNTQTNEVTWELPQYLATQVQGLQHYQP [D20K], the abundance fitness is -0.287 ± 0.11.
Next, SGWQYDTQCSLAGVGIEMGEWQEVWDENTGCYYYWNTQTNEVTWELPQYLATQVQGLQHYQP [D20E]: -0.162 ± 0.064; SGWQYDTQCSLAGVGIEMGWWQEVWDENTGCYYYWNTQTNEVTWELPQYLATQVQGLQHYQP [D20W]: -0.143 ± 0.084.
For the variant SGWQYDTQCSLAGVGIEMGQWQEVWDENTGCYYYWNTQTNEVTWELPQYLATQVQGLQHYQP [D20Q], the abundance fitness was -0.287 ± 0.091.
Next, SGWQYDTQCSLAGVGIEMGFWQEVWDENTGCYYYWNTQTNEVTWELPQYLATQVQGLQHYQP [D20F]: 0.15 ± 0.098; SGWQYDTQCSLAGVGIEMGMWQEVWDENTGCYYYWNTQTNEVTWELPQYLATQVQGLQHYQP [D20M]: -0.29 ± 0.095; SGWQYDTQCSLAGVGIEMGVWQEVWDENTGCYYYWNTQTNEVTWELPQYLATQVQGLQHYQP [D20V]: -0.237 ± 0.06.
Take SGWQYDTQCSLAGVGIEMGRWQEVWDENTGCYYYWNTQTNEVTWELPQYLATQVQGLQHYQP [D20R]: the abundance fitness is -0.022 ± 0.068.
SGWQYDTQCSLAGVGIEMGYWQEVWDENTGCYYYWNTQTNEVTWELPQYLATQVQGLQHYQP [D20Y]: the abundance fitness is -0.217 ± 0.11.
Next, SGWQYDTQCSLAGVGIEMGGWQEVWDENTGCYYYWNTQTNEVTWELPQYLATQVQGLQHYQP [D20G]: -0.254 ± 0.077.
Next, SGWQYDTQCSLAGVGIEMGAWQEVWDENTGCYYYWNTQTNEVTWELPQYLATQVQGLQHYQP [D20A]: -0.3 ± 0.068; SGWQYDTQCSLAGVGIEMGNWQEVWDENTGCYYYWNTQTNEVTWELPQYLATQVQGLQHYQP [D20N]: -0.264 ± 0.15.
Next, SGWQYDTQCSLAGVGIEMGHWQEVWDENTGCYYYWNTQTNEVTWELPQYLATQVQGLQHYQP [D20H]: -0.043 ± 0.13; SGWQYDTQCSLAGVGIEMGDWQLVWDENTGCYYYWNTQTNEVTWELPQYLATQVQGLQHYQP [E23L]: -0.637 ± 0.081; SGWQYDTQCSLAGVGIEMGDWQTVWDENTGCYYYWNTQTNEVTWELPQYLATQVQGLQHYQP [E23T]: -0.582 ± 0.12.
On to SGWQYDTQCSLAGVGIEMGDWQHVWDENTGCYYYWNTQTNEVTWELPQYLATQVQGLQHYQP [E23H], for which the abundance fitness was -0.443 ± 0.36.
As for SGWQYDTQCSLAGVGIEMGDWQMVWDENTGCYYYWNTQTNEVTWELPQYLATQVQGLQHYQP [E23M], the figure is -0.964 ± 0.18; as for SGWQYDTQCSLAGVGIEMGDWQRVWDENTGCYYYWNTQTNEVTWELPQYLATQVQGLQHYQP [E23R], -0.59 ± 0.12; as for SGWQYDTQCSLAGVGIEMGDWQAVWDENTGCYYYWNTQTNEVTWELPQYLATQVQGLQHYQP [E23A], -0.817 ± 0.13.
Take SGWQYDTQCSLAGVGIEMGDWQPVWDENTGCYYYWNTQTNEVTWELPQYLATQVQGLQHYQP [E23P]: the abundance fitness is -0.697 ± 0.14.
As for SGWQYDTQCSLAGVGIEMGDWQQVWDENTGCYYYWNTQTNEVTWELPQYLATQVQGLQHYQP [E23Q], the figure is -0.431 ± 0.12.
